Laboratory results from publication PMC10786891, “Massively parallel profiling of RNA-targeting CRISPR-Cas13d”.
Changes are numbered by the printed parent chain. In names and notes the source's numbering stands.

T1: EsCas13d, nuclease-dead (Eubacterium siraeum, UniProt B0MS50, R295A;H300A;R849A;H854A)
T1 sequence: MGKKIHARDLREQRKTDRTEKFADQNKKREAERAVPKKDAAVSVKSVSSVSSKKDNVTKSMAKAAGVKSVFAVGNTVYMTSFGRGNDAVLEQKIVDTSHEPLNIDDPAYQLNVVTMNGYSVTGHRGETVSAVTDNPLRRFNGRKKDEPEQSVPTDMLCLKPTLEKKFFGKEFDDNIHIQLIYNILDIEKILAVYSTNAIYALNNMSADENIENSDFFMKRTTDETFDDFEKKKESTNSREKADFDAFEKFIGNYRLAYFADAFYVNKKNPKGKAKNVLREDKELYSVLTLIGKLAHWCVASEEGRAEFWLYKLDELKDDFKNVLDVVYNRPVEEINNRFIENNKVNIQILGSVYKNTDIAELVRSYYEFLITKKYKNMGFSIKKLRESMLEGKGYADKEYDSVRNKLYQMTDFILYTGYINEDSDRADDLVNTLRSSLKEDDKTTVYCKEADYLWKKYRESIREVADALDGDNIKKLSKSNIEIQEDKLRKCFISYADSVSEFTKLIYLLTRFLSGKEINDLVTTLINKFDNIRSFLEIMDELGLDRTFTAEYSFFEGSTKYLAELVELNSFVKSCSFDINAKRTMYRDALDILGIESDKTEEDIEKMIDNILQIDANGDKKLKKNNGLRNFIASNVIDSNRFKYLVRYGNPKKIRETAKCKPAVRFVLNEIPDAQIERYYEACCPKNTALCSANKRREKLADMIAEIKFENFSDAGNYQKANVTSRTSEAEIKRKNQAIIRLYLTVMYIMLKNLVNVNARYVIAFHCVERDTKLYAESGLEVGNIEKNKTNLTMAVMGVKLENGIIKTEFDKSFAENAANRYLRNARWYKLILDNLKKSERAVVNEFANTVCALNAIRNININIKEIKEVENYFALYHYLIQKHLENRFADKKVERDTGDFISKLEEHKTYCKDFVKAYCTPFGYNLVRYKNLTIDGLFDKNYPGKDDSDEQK

B1: target 1 C7A,C21A (mixed)
RNA 1: CACCCGUGCAAAAAUGCAGGGGUCUAAAACUGAGCGGAUAACCUCUCUAUGG
RNA 2: GGGAAUGGAUCCACAUCUACGAAUUCGUACAAUAGAGAGGUUAUACGCUCACCGAGAUCGGAAGAGCACACGU
B2: target 1 insA 3' of 21,insA 3' of 19 (mixed)
RNA 1: B1 RNA 1
RNA 2: GGGAAUGGAUCCACAUCUACGAAUUCGUACCAAUAAGAGAGGUUAUCCGCUCACCGAGAUCGGAAGAGCACACGU
B3: target 1 insU 3' of 4,insU 3' of 1 (mixed)
RNA 1: B1 RNA 1
RNA 2: GGGAAUGGAUCCACAUCUACGAAUUCGUACCAUAGAGAGGUUAUCCGCUUCAUCCGAGAUCGGAAGAGCACACGU
B4: target 1 insG 3' of 16,insA 3' of 5 (mixed)
RNA 1: B1 RNA 1
RNA 2: GGGAAUGGAUCCACAUCUACGAAUUCGUACCAUAGAGGAGGUUAUCCGACUCACCGAGAUCGGAAGAGCACACGU
B5: target 1 A18U (mixed)
RNA 1: B1 RNA 1
RNA 2: B1 RNA 2 with A31C, A34U, A45C
B6: target 1 A14C (mixed)
RNA 1: B1 RNA 1
RNA 2: B1 RNA 2 with A31C, A38C, A45C
B7: target 1 A9G,U11G (mixed)
RNA 1: B1 RNA 1
RNA 2: B1 RNA 2 with A31C, U41G, A43G, A45C
B8: target 1 A1G,A18U (mixed)
RNA 1: B1 RNA 1
RNA 2: B1 RNA 2 with A31C, A34U, A45C, A51G
B9: target 1 A1U,A14C (mixed)
RNA 1: B1 RNA 1
RNA 2: B1 RNA 2 with A31C, A38C, A45C, A51U
B10: target 1 insG 3' of 21,insA 3' of 8 (mixed)
RNA 1: B1 RNA 1
RNA 2: B4 RNA 2 with A32G, U33A, A34U, G35A, A36G, G37A, C46A, G48C, A49G
B11: target 1 complement block 4-7 (mixed)
RNA 1: B1 RNA 1
RNA 2: B1 RNA 2 with A31C, A45G, C46G, G47C, C48G
B12: target 1 insU 3' of 17,insG 3' of 9 (mixed)
RNA 1: B1 RNA 1
RNA 2: B4 RNA 2 with A36U, G37A, U45G, C46U, G48C, A49G
B13: target 1 G5C (mixed)
RNA 1: B1 RNA 1
RNA 2: B1 RNA 2 with A31C, A45C, G47C
B14: target 1 G12U,G13A (mixed)
RNA 1: B1 RNA 1
RNA 2: B1 RNA 2 with A31C, G39A, G40U, A45C
B15: target 1 insC 3' of 18,insU 3' of 12 (mixed)
RNA 1: B1 RNA 1
RNA 2: B4 RNA 2 with G35C, A36G, G37A, A44U, U45A, C46U, G48C, A49G
B16: target 1 insA 3' of 22,insC 3' of 15 (mixed)
RNA 1: B1 RNA 1
RNA 2: B2 RNA 2 with C31A, A32C, A36G, G37A, A38G, G39C
B17: target 1 A1G,G5C (mixed)
RNA 1: B1 RNA 1
RNA 2: B1 RNA 2 with A31C, A45C, G47C, A51G
B18: target 1 U3A,G17C (mixed)
RNA 1: B1 RNA 1
RNA 2: B1 RNA 2 with A31C, G35C, A45C, U49A
B19: target 1 C4G,C22U (mixed)
RNA 1: B1 RNA 1
RNA 2: B1 RNA 2 with C30U, A31C, A45C, C48G
B20: target 1 G5U,G15U (mixed)
RNA 1: B1 RNA 1
RNA 2: B1 RNA 2 with A31C, G37U, A45C, G47U
B21: target 1 insC 3' of 9,insG 3' of 6 (mixed)
RNA 1: B1 RNA 1
RNA 2: B4 RNA 2 with G38A, A39G, G41U, U43A, A44C, A49G
B22: target 1 insA 3' of 22,insC 3' of 8 (mixed)
RNA 1: B1 RNA 1
RNA 2: B4 RNA 2 with C31A, A32C, U33A, A34U, G35A, A36G, G37A, G48C, A49G
B23: target 1 U19A,C21A (mixed)
RNA 1: B1 RNA 1
RNA 2: B1 RNA 2 with U33A, A45C
B24: target 1 insC 3' of 11,insA 3' of 8 (mixed)
RNA 1: B1 RNA 1
RNA 2: B4 RNA 2 with G38A, A39G, G41U, U42C, C46A, G48C, A49G
B25: target 1 insC 3' of 10,insG 3' of 8 (mixed)
RNA 1: B1 RNA 1
RNA 2: B4 RNA 2 with G38A, A39G, G41U, U43C, C46G, G48C, A49G
B26: target 1 complement block 3-7 (mixed)
RNA 1: B1 RNA 1
RNA 2: B1 RNA 2 with A31C, A45G, C46G, G47C, C48G, U49A
B27: target 1 insC 3' of 3,insG 3' of 2 (mixed)
RNA 1: B1 RNA 1
RNA 2: B3 RNA 2 with U50C, A52G, U53A
B28: target 1 insG 3' of 7,insU 3' of 2 (mixed)
RNA 1: B1 RNA 1
RNA 2: B3 RNA 2 with C46G, G47C, C48G, U49C, A52U, U53A
B29: target 1 A1C,G5C (mixed)
RNA 1: B1 RNA 1
RNA 2: B1 RNA 2 with A31C, A45C, G47C, A51C
B30: target 1 A1C,A18U (mixed)
RNA 1: B1 RNA 1
RNA 2: B1 RNA 2 with A31C, A34U, A45C, A51C
B31: target 1 insU 3' of 7,insG 3' of 6 (mixed)
RNA 1: B1 RNA 1
RNA 2: B3 RNA 2 with C46U, G47C, C48G, U49G, U50C, C51U, A52C, U53A

Molecular target: T1, EsCas13d, nuclease-dead
Assay: crRNA (strand 1, pre-loaded); Mg2+; 40 mM Tris-HCl pH 7.5, 150 mM NaCl, 6 mM MgCl2, 1 mM DTT, 0.1% Tween-20, 0.2 mg/ml BSA; 25 C; 10 min per concentration, then washed
Conditions: tags: His6-TwinStrep-SUMO cleaved; N-terminal SNAP kept (SNAP-Surface 488); label: 3' end held by stalled T7 RNA polymerase

Binder	Kd [nM]
B1	36 ± 4
B2	32.2 ± 2.4
B3	8.56 ± 0.33
B4	23.5 ± 1.5
B5	26.4 ± 1.2
B6	31 ± 7
B7	15.1 ± 0.7
B8	24.6 ± 1.7
B9	45 ± 6
B10	64 ± 11
B11	12.6 ± 0.8
B12	38 ± 4
B13	9.6 ± 0.4
B14	3.99 ± 0.22
B15	28.6 ± 1.7
B16	28.5 ± 2.2

Binder	Kd [nM]
B17	10 ± 0.5
B18	44 ± 4
B19	10 ± 2
B20	31 ± 4
B21	14.4 ± 1.2
B22	22.3 ± 2
B23	46 ± 5
B24	41.4 ± 3.2
B25	15.7 ± 0.8
B26	12.9 ± 0.8
B27	11.6 ± 0.7
B28	9.6 ± 0.9
B29	9 ± 0.7
B30	~40
B31	16.7 ± 1.3
